Measured values reported in PMC8684761 (Molecular Biology of the Cell, 2021).

Target: T1, 6His-She1 C-terminal fragment (residues 194-338) (S. cerevisiae, UniProt P38200 194-338)
T1 sequence (looked up): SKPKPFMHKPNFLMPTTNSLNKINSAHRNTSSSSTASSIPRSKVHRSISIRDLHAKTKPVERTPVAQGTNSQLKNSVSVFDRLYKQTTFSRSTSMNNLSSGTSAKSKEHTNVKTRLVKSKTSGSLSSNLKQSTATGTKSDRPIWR
Experiment: pull-down

B1: peptide encompassing the C-terminus of Tub1 (amino acids 415-447), wild type (peptide)
peptide: not shown
B1: binds.
